The text below walks through data of a protein production outcome set (Wang et al. 2014).

The data set in a line: label from the status in PepcDB records.
As to “MVIASIVIYKHSYSDLKQTLDSLLAVSSINKIVLVDNDHSDWASTYHHPKITYLKSDGNFGFGYGHNYAIKRFAAQSDYFLICNPDIVFESSEFEKLLNFIQTREEALFLPKIVYENGENQYGARLLPSPFNLFARRFSPKYAEQLDEDYLLKNFDLSKPIFAPYLHGCFMLFRSKALLELGGFDERFFMYMEDVDLSRRCAEKFGNIYYPLAQVIHLHEQGSYKNKTLLKAHLKSAWQYFCKWGWLYDAQRSSLNGKCLKQRNG”, the protein production result is listed as “failed”. The result for “MVIFNYILVCIIFGTTFLTIKIGIEAGAPPLFSAGIRFFLAGIILMIIFKLKRKEIMPHIFSKRIMYAGFCLTFMTFASLYWSEQYISSGLAAVLSATGPMMILLIQAKRNREKLQKEQLVALVIALIGVIFVSLPGMHQQVSFIWSIACIVLVIGELFYGIGSIRSKEILSDLSNVSPFLINGIQMFYGGILLLIASIIVEQPNVTVLTSWSVQWPILYLIFIGSIGGHGLYYWLLSKTNPVFPSTWLYVSPLIAIIVGYIILGEPLNPTMGMGACLILIGVFLANRSTLRTYFKKGRLLEKEM” reads “failed”.

In the case of “MVITLSRLYVHPVKSMRGLQLSHAQVSSSGLAFDRVFMITEPDGTFITARQYPKMVMFTPALMSDGLYLTAPDGESASIRFNDFLANAEPTEVWGNHFTALIAPAAINNWLSGYFQREVQLRWLGPELTRRVKPMPEIPLSFADGFPYLLINEASFKELQQRCPGSIKLEQFRPNLLVTGASAFAEDSWQVIRVGDITFDLVKPCSRCVLTTVSVERGRKHPTGEPLQTLQTFRTAENGDIDFGQNMVARNSGIIRVGDEVEVLSTKPPRPYGAGAVVESLAAPEDKSKAVAIEYNGIRFNGNNQQVLLEQLEQQNIRIPYSCRAGICGSCRITLINGEVAPLKQSAIGNDGTILCCSCIPKGDITLSGK”, the protein production entry was “failed”. On to “MVKDRQIQKTKVAIYNAFISLLQENDYSKITVQDVIGLANVGRSTFYSHYESKEVLLKELCEDLFHHLFKQGRDVTFEEYLVHILKHFEQNQDSIATLLLSDDPYFLLRFRSELEHDVYPRLREEYITKVDIPEDFLKQFLLSSFIETLKWWLHQRQKMTVEDLLKYYLTMVER”, for which the protein production result is recorded as “not failed”. The result for “MVKDTLFSTPIAKLGDFIFDENVAEVFPDMIQRSVPGYSNIITAIGMLAERFVTADSNVYDLGCSRGAATLSARRNINQPNVKIIGIDNSQPMVERCRQHIAAYHSEIPVEILCNDIRHVEIKNASMVILNFTLQFLPPEDRIALLTKIYEGLNPNGVLVLSEKFRFEDTKINHLLIDLHHQFKRANGYSELEVSQKRTALENVMRTDSIETHKVRLKNVGFSQVELWFQCFNFGSMIAVK” reads “not failed”.

Regarding “MVKFIHCSDLHLDSPFKSKSHISPKIFEDVQKSAYESFKNIVDIALQQDVDFVIIAGDLFDSENRTLRAEIFLKQQFERLQNEQIFVYVCHGNHDPLSSKISSNWPDNVSVFSNKVETYEAITKSGETIYIHGFSYENRASYENKIDEYPSSQGQKGIHIGVLHGTYSKSSVNERYTEFILEDLNSKLYHYWALGHIHERQQLSDMPVINYSGNIQGRHFNEQGEKGCLLIEGDHLKLKTKFYPTQYIRFEEATIETDKTSKQGLYEVIQNFKEQVREEGKAFYRLTLVINSETLISPQDLLQVEEMITDYEENENQFVYIDELKIQYAQNDESPLVNEFSAELLVDQTVFDKAMSDLYLNPRASKFLDDYGTFDHTALVNRAEEILKAEMRGEQNDN”, the protein production result was “failed”.

In the case of “MVKHIWDSERAAQLPKGVEELVYRSNLIGSDRTVCNWGGGNTSMKTTEKDFRGREIEVMWVKGSGSDLATMKAHNFSGLKLDDIRPLIKRDQMPDEEMVDYLSHCMIDSKHPRPSIETLLHAFLPYKHVDHTHPDAIISICCADNGKQIAEDIYGNRFVWVPYVRPGFTLSKMIAEGVANNPHAELVLMEKHGLVTWGETSETCYQKTISIIQEAEQYINDRINQHEVFGGKRYQPLPEDKR”, the protein production entry is recorded as “not failed”. For the sequence “MVKKLFILISYGVIAALIYLYGEWLLEWIQQGGARFIFLTVIIATLLALFPIIPYPIIGGVLGAAYGPFLGSAVTWIGSSLASIIMFMFVRYGYQDWGLSLIRRSDLVTKVTAMFEKNAFMAIFITRLIPIIPSIIVNIYSALSRVSFINYSIASSLGKVPSMILFAVVGNSIATNPSQLLWIALFYSSFLLIVWIGYRAWQRVALQKQANI”, the protein production result was “failed”.
